This note sets out measurements from publication PMC7761207, “Molecular Characterization of the Burkholderia cenocepacia dcw Operon and FtsZ Interactors as New Targets for Novel Antimicrobial Design” (Antibiotics, 2020).

The chains are these.
B3: B. cenocepacia J2315 FtsZ, BACTH hybrid (natural protein, Burkholderia cenocepacia J2315, UniProt B4E5Y7 1-398, looked up)
chain: MEFEMLETETNGTIIKVVGVGGAGGNAVQHMINRGVQGVDFIVMNTDAQALSRSRASSVIQLGNTGLGAGAKPEMGRAAAEEARERIADALRGAHMVFITAGMGGGTGTGAAPVVAQIAKEMGILTVGVVSKPFEFEGGKRMRVAEAGSQQLEDHVDSLIVVLNDKLFDVMGDDAEMDKCFQCADDVLNNAVAGIAEIINVDGLVNVDFEDVKTVMGEQGKAMMGTATVAGVDRARLAAEQAVASPLLEGVDLSGARGVLVNITSSRSLRLSETREVMNTIKSYAAEDATVIFGAVYDDAMGDALRVTVVATGLGRAAKKQQSAPMTLLRTGTDNQPVSAVSHGYAPAQHVSTADYGALDTPAVWRNSRETAASHVQALQEKGVDTYDIPAFLRKQAD
notes: FtsZ of Burkholderia cenocepacia J2315; gene amplified from genomic DNA; Cloned in all four BACTH vectors (pUT18, pUT18C, pKT25, pKNT25); by its place between BCAL3458 and BCAL3456 probably BCAL3457 (surmised); source: bacterial two-hybrid (BACTH) fusion, E. coli BTH101
B4: B. cenocepacia J2315 FtsA, BACTH hybrid (natural protein, Burkholderia cenocepacia J2315, UniProt B4E6I8 1-410, looked up)
chain: MSKDYKDLLVSLDIGTSKVVAIVAELKGEGHYEVIGLGQSESKGLKKGVVVNIEATVQSIQRALEEAELMADCKITNVFTGIAGSHIRSFNSSGMVAIKDKEVTQTDVARVIETAKAINIPTDQQVLHILTQEFIIDGQEDVREPIGMSGIRLEVKVHIVTGAVSAAQNIVKCVRRCGLEVNDLILQPLASSLAVLTEDEKDLGVVLVDIGGGTTDIAIFAEGAIRHTAVIPIAGDQITSDIAMALRTPTPDAEDIKVGYGIAKQALADPDEMVEVPGLGERGPRTLSRQALAAVIEPRVEELFSLVQQVVRESGYEELLSSGVVITGGASMMPGMVELGEDIFLKPVRIGAPEYAGGLSDVVRNPRYSTAMGLLVEGSAQRMRGRKVAVQSGNAGQVFSRMKEWFLSNF
notes: FtsA of Burkholderia cenocepacia J2315 (gene ftsA, BCAL3458); Cloned in all four BACTH vectors; source: bacterial two-hybrid (BACTH) fusion, E. coli BTH101

Like-named read-outs stand apart in the source and are kept apart here.

Series [1] deals with B3. Put plainly: two-hybrid; BACTH (bacterial adenylate cyclase two-hybrid) in E. coli cya strain BTH101; T18 and T25 hybrids; beta-galactosidase on LB-IPTG-X-Gal and MacConkey plates and in liquid culture, 30 C; at least four-fold over BTH101(pUT18/pKT25) counted as an interaction.
Series [2] deals with T1, MraZ (Burkholderia cenocepacia J2315) (UniProt B4E6K1).
T1 sequence: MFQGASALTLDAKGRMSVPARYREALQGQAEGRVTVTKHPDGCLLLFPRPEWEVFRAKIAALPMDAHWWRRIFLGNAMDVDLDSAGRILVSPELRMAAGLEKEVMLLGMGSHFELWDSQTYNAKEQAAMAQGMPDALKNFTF
Put plainly: EMSA. The conditions noted are these: 20 mM Tris-HCl pH 7.5, 100 mM NaCl, 5 mM MgCl2, 0.1 mM DTT, 150 ng/uL BSA, 50 ng/uL herring sperm DNA, 30 min 37 C; 1.5% agarose in 0.5x TBE at 4 C. In general terms: Mobility shift assays separate free from complexed probe on a gel.

For series [3], the target named is B. cenocepacia J2315 FtsZ, BACTH hybrid (Burkholderia cenocepacia J2315) (UniProt B4E5Y7). In words: two-hybrid; BACTH (bacterial adenylate cyclase two-hybrid) in E. coli cya strain BTH101; T18 and T25 hybrids; beta-galactosidase on LB-IPTG-X-Gal and MacConkey plates and in liquid culture, 30 C; at least four-fold over BTH101(pUT18/pKT25) counted as an interaction.

In series [4] the target is T1, MraZ (Burkholderia cenocepacia J2315). Put plainly: competition. The following applies: 20 mM Tris-HCl pH 7.5, 100 mM NaCl, 5 mM MgCl2, 0.1 mM DTT, 150 ng/uL BSA, 50 ng/uL herring sperm DNA, 30 min 37 C; 1.5% agarose in 0.5x TBE at 4 C.
Series [5] deals with B4. Put plainly: two-hybrid; BACTH (bacterial adenylate cyclase two-hybrid) in E. coli cya strain BTH101; T18 and T25 hybrids; beta-galactosidase on LB-IPTG-X-Gal and MacConkey plates and in liquid culture, 30 C; at least four-fold over BTH101(pUT18/pKT25) counted as an interaction.
The target of series [6] is B. cenocepacia FtsZ, protein of the sedimentation assays (Burkholderia cenocepacia). Put plainly: co-sedimentation; with vesicles of E. coli total lipid extract (2 mg/mL); proteins 12 uM, 25 mM PIPES pH 6.8, 10 mM MgCl2, 2 mM GTP and/or ATP; 10 min 30 C; 20,000 x g 25 min 20 C.
Series [7] concerns the molecule itself. Put plainly: two-hybrid; BACTH (bacterial adenylate cyclase two-hybrid) in E. coli cya strain BTH101; T18 and T25 hybrids; beta-galactosidase on LB-IPTG-X-Gal and MacConkey plates and in liquid culture, 30 C; at least four-fold over BTH101(pUT18/pKT25) counted as an interaction.

With “B. cenocepacia J2315 ZapA, BACTH hybrid (natural protein)”, the β-galactosidase activity, fold over the control strain in series [1] amounted to 10 fold. As for “GGAGCGGCCCGCTTTTTTGACGAATTTTGTTAGTTAGAACAAGGACTTACGCGCACATGCTCATGCGACCCCTCATTCCAAAAACCGTTATAAATGAATGAGCTAGTGCAACTTGTGAAGGTGATACGTGAGAAAGACGGCCCAGACGGGCGTGCGGACGGGGCTTTCGGGGGCGGGAAAACGAGGAGTGAGCGGGCGGTATCGGGGGCGGTGAACCGGGGCGGCGTCCCACGCCACCCCGGCGCCAATC (double strand) [BS1-6-Fam]”, the binding entry in series [2] is given as “no binding”. For the molecule “B. cenocepacia J2315 FtsQ, BACTH hybrid (natural protein)”, the β-galactosidase activity, fold over the control strain in series [3] was 16 fold. Take “B. cenocepacia J2315 FtsE, BACTH hybrid (natural protein)”: the β-galactosidase activity, fold over the control strain in series [1] came to 50 fold.

Consider “AAGTTGCACTAGCTCATTCATTTATAACGGTTTTTGGAATGAGGGGTCGCATGAGCATGTGCGCGTAAGTCCTTGTTCTAACTAACAAAATTCGTCAAAAAAGCGGGCCGCTCCCTTGACCGTGCCACACCCTTCCTCTAAAGTGGGAGACAGTGTGAGAAAGTGTATTTTTGTGTGATTTAGCAGGCTATTCCGGCTAAATTCTCAGCATTGAGCGGGTGCTTCGGTGCCCTGAACGGGAGAGCGGAAA (double strand) [BS2 unlabeled]”, for which the binding result in series [4] is recorded as “binds”. For “B. cenocepacia J2315 FtsN, BACTH hybrid (natural protein)”, the β-galactosidase activity, fold over the control strain in series [5] was 5 fold. As for “AAGTTGCACTAGCTCATTCATTTATAACGGTTTTTGGAATGAGGGGTCGCATGAGCATGTGCGCGTAAGTCCTTGTTCTAACTAACAAAATTCGTCAAAAAAGCGGGCCGCTCCCTTGACCGTGCCACACCCTTCCTCTAAAGTGGGAGACAGTGTGAGAAAGTGTATTTTTGTGTGATTTAGCAGGCTATTCCGGCTAAATTCTCAGCATTGAGCGGGTGCTTCGGTGCCCTGAACGGGAGAGCGGAAA (double strand) [BS2-6-Fam]”, the binding entry in series [2] is listed as “binds”. Regarding “B. cenocepacia FtsZ, protein of the sedimentation assays (natural protein)”, the percent of the protein in the pellet fraction in series [6] amounted to 50%.

B1: putative SulA (pBCA006) of B. cenocepacia J2315, BACTH hybrid (natural protein, Burkholderia cenocepacia J2315, UniProt B4EQP0 1-238, looked up)
chain: MHPALAHPEAIHPALWRASQLARPSVRGVDTGHLELTAELPGGGWPAGALIELLAPQPGIGELRLLAPVLARTAGKPVMLIQPPHALQPLALAYWGIDPSGFVTLPAPRTADALWAAEQALRAGTCAAVLLWQSHVRADALRRLNLAAQSGQALFYLFRPVAAARDASPAPLRLALAPKRDGIDVTFLKRRGPARDTPLFVPLSPSPILLNRHASLDRRASAAPQPRSVPATIAGAVA
notes: putative SulA, product of gene pBCA006 of Burkholderia cenocepacia J2315; Cloned in all four BACTH vectors; source: bacterial two-hybrid (BACTH) fusion, E. coli BTH101
Regarding B1, in series [1] (partners not purified), the “β-galactosidase activity, fold over the control strain” value (shortened to “β-galactosidase activity, fold”) came to 25 fold.

B2: B. cenocepacia J2315 ZipA, BACTH hybrid (natural protein, Burkholderia cenocepacia J2315, UniProt B4ECN7 1-424, looked up)
chain: MDELTLGLIGAGAVVVGGVVVYNAWQGAKVRRRMPRPMPEEAAEAMNRPERDEELPFIEPVRQPVRREPAAPVAAATAAAETARVEPTFGGAAPADTPADLQAEATGVDTSAESSEPAAGEEAVPAATHDAAAEPAEPTEPVMPAATTVSSAPPAIVDRRIDCIVPIRLTGPLPGDKILPVAQRLRRAGSKPVHIEGKPEGGQWELLQNGVRYEELRAAAQLANRSGALNELEFSEFVTGVQQFADAIDGAPEFPDMMETVAMARELDAFAAQCDAQLSINVMSDGAPWSANYVQAVASQDGLLLSRDGTRFVKLDAKQNPVFMLQFGDTNFLRDDLTYKGGNMITLVLDVPVAEEDILPFRLMCDYAKSLSERIGARVVDDSRRPLPESTLLAIEQQLMKLYAKLEEAGIPAGSPVTRRLFSQ
notes: ZipA of Burkholderia cenocepacia J2315 (gene zipA, BCAL2097); Cloned in all four BACTH vectors; source: bacterial two-hybrid (BACTH) fusion, E. coli BTH101
Turning to B2, the “β-galactosidase activity, fold” value stood at 4.5 fold in series [1] (partners not purified) and 32 fold in series [5] (partners not purified). As for B3, the “β-galactosidase activity, fold” value in series [7] was 5 fold. On to B4, for which, in series [1] (partners not purified), the “β-galactosidase activity, fold” value amounted to 5 fold.
